Data reported in patent US20260258155A1 (TRIVENI BIO, published 2026).
Where a chain is given by its changes, count along the chain named. Blank lines part the entries; values can stand above or below the binder they belong to.

Tests used:
[1] = molecular target: T1, mouse KLK7 (mKLK7) (mouse, UniProt Q91VE3 26-249); assay: Biacore SPR, antibody captured on Protein A chip, single-cycle kinetics, 25 C
T1 construct: Enzymatically active in the protease assay
Description: (§1) All screening assays were performed at 25 C. The running buffer used was 20 mM HEPES, 300 mM NaCl, 0.01% Tween-20, pH 7.5. Antibodies (1 ug/mL) were captured on Fc2-4 of a Series S ProteinA Sensor Chip (Cytiva) flowing at 10 ul/mL for 30 s. Kinetics measurements were made in single-cycle kinetics mode with a series of 4-5 concentrations with top concentration of 25-100 nM and serial dilution 4-fold. Contact time was typically 300 s and dissociation time ranged from 1800-3600 s. Flow rate of 30 ul/mL was typically used. The sensor chip was regenerated with 10 mM glycine, pH 1.5 with a contact time of 30 s flowing at 50 ul/mL.

[2] = molecular target: T1, mouse KLK7 (mKLK7); assay: cell-based or functional assay
[3] = molecular target: human KLK7 (hKLK7), active form (human, UniProt P49862 30-253); assay: cell-based or functional assay
Sequence of human KLK7 (hKLK7), active form (P49862 30-253): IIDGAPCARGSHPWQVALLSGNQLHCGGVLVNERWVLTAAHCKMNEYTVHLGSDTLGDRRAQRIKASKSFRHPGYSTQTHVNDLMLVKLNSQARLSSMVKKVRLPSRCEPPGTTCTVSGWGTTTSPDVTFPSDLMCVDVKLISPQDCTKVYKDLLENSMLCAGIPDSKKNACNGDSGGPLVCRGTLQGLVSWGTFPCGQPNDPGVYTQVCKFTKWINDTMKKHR

[4] = molecular target: T2, mouse KLK5 (mKLK5) (mouse); assay: Biacore SPR, antibody captured on Protein A chip, single-cycle kinetics, 25 C
T2 construct: Enzymatically active in the protease assay
Description: as §1

[5] = molecular target: human KLK5 (hKLK5), active form (human, UniProt Q9Y337 67-293); assay: cell-based or functional assay
[6] = molecular target: T2, mouse KLK5 (mKLK5); assay: cell-based or functional assay

T1 sequence (Q91VE3 26-249 limits assumed): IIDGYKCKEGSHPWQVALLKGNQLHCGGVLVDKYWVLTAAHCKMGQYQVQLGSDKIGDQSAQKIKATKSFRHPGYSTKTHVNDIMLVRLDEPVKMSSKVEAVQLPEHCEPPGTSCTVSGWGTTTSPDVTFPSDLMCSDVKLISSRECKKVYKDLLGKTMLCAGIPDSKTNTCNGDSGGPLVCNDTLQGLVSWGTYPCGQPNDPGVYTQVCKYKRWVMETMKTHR

B1: KLK7-L4-Ab2 (antibody, V domains shown)
VH: QLQLQESGPGLVKPSETLSLTCTVSGGSISSSPYNWVWIRQPPGKGLEWIGSILHSGSTYYNPSLKSRVTISVDTSKNQFSLKLSSVTAADTAVYYCARGVPTYWGAASHYYYYMDVWGKGTTVTVSS
VL: DIQMTQSPSTLSASVGDRVTITCRASQSISSWLAWYQQKPGKAPKLLIYKASSLESGVPSRFSGSGSGTEFTLTISSLQPDDFATYYCEQYGSESPLTFGGGTKVEIK
Kd [1]: 0.0266 nM
mKLK7 IC50 (protease inhibition) [2]: 2.42 nM
mKLK7 IC90 (protease inhibition) [2]: 9.04 nM
hKLK7 IC50 (protease inhibition) [3]: 1.42 nM
hKLK7 IC90 (protease inhibition) [3]: 6.34 nM

B2: KLK7-L5-Ab1 (antibody, V domains shown)
VH: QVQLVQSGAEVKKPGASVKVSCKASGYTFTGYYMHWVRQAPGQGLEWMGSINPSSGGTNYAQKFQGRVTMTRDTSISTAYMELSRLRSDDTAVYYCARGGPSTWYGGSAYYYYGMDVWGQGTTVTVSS
VL: EIVLTQSPGTLSLSPGERATLSCRASQSVSSDYLAWYQQKPGQAPRLLIYGASSRATGIPDRFSGSGSGTDFTLTISRLEPEDFAVYYCQQYANLWTFGGGTKVEIK
Kd [1]: 4.86 nM
mKLK7 IC50 (protease inhibition) [2]: 15 nM
mKLK7 IC90 (protease inhibition) [2]: 67.3 nM

B3: KLK7-L5-Ab2 (antibody, V domains shown)
VH: QVQLVQSGAEVKKPGASVKVSCKASGYTFAGYDMHWVRQAPGQGLEWMGSINPTSGRTNYAQKFQGRVTMTRDTSISTAYMELSRLRSDDTAVYYCARGGPSTWYGGSAYTYYGADVWGQGTTVTVSS
VL: B2 VL with N94P
Kd [1]: 0.0253 nM
mKLK7 IC50 (protease inhibition) [2]: 1.48 nM
mKLK7 IC90 (protease inhibition) [2]: 26.5 nM

B5: KLK5-L2-Ab3 (antibody, V domains shown)
VH: QLQLQESGPGLVKPSETLSLTCTVSGGSIPSSSYYWSWIRQPPGKGLEWIGNIYYSGSTYYNPSLKSRVTISVDTSKNQFSLKLSSVTAADTAVYYCARGEYDRSYYFWGMDVWGQGTTVTVSS
VL: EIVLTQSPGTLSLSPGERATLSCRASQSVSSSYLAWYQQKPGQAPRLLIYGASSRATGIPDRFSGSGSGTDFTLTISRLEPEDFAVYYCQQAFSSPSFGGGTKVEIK
Kd [4]: 0.59 nM
hKLK5 IC50 (protease inhibition) [5]: 2.26 nM
hKLK5 IC90 (protease inhibition) [5]: 10.2 nM
mKLK5 IC50 (protease inhibition) [6]: 1.82 nM
mKLK5 IC90 (protease inhibition) [6]: 29.5 nM

B6: KLK5-L1-Ab3 (antibody, V domains shown)
VH: EVQLVESGGGLVQPGGSLRLSCAASGFTFEHYSMNWVRQAPGKGLEWVSYISSSSSYIDYADSVKGRFTISRDNAKNSLYLQMNSLRAEDTAVYYCARDLTSMQSRDYYYYGMDVWGQGTTVTVSS
VL: DIQMTQSPSSVSASVGDRVTITCRASQGISSWLAWYQQKPGKAPKLLIYAASSLQSGVPSRFSGSGSGTDFTLTISSLQPEDFATYYCQQVPIFPYTFGGGTKVEIK
Kd [4]: 0.32 nM
hKLK5 IC50 (protease inhibition) [5]: 1.71 nM
hKLK5 IC90 (protease inhibition) [5]: 15 nM
mKLK5 IC50 (protease inhibition) [6]: 4.97 nM
mKLK5 IC90 (protease inhibition) [6]: 40.1 nM

B7: KLK5-L3-Ab7 (antibody, V domains shown)
VH: QVQLVQSGAEVRKPGSSVKVSCKASGGTFSNYHISWVRQAPGQGLEWMGGIFPTFGTANYAQKFQGRVTITADESTSTAYMELSSLRSEDTAVYYCARGSASGYYDRSYYYDGMDVWGQGTTVTVSS
VL: B6 VL with P92I, I93S
Kd [4]: 1.4 nM
mKLK5 IC50 (protease inhibition) [6]: 2.17 nM
mKLK5 IC90 (protease inhibition) [6]: 10.7 nM

B9: KLK7-L3-Ab2 (antibody, V domains shown)
VH: QVQLVQSGAEVKKPGSSVKVSCKASGGTFNNYAISWVRQAPGQGLEWMGAIIPIFGVANYAQKFQGRVTITADESTSTAYMELSSLRSEDTAVYYCARGAPNYYGAQSSRGIAFDIWGQGTMVTVSS
VL: B6 VL with Q89V, V91A, P92N, I93A, T97K
Kd [1]: 0.125 nM
mKLK7 IC50 (protease inhibition) [2]: 2.68 nM
mKLK7 IC90 (protease inhibition) [2]: 11.5 nM
hKLK7 IC50 (protease inhibition) [3]: 0.802 nM
hKLK7 IC90 (protease inhibition) [3]: 4.43 nM

B12: KLK5-L3-Ab6 (antibody, V domains shown)
VH: B7 VH with R12K, N31G, H33V, T54I, F55S, T57Y, N59V, G99A, D112Y
VL: B6 VL with P92S, I93S, Y96Q
Kd [4]: 12 nM
mKLK5 IC50 (protease inhibition) [6]: 12.7 nM
mKLK5 IC90 (protease inhibition) [6]: 80.8 nM

The next lines start with the values.

Kd [4]: 0.47 nM
hKLK5 IC50 (protease inhibition) [5]: 2.04 nM
hKLK5 IC90 (protease inhibition) [5]: 9.86 nM
mKLK5 IC50 (protease inhibition) [6]: 1.68 nM
mKLK5 IC90 (protease inhibition) [6]: 15.6 nM
B4: KLK5-L2-Ab4 (antibody, V domains shown)
VH: B5 VH with F108Y, M111L
VL: not shown

Kd [1]: 0.217 nM
mKLK7 IC50 (protease inhibition) [2]: 3.34 nM
mKLK7 IC90 (protease inhibition) [2]: 11.4 nM
hKLK7 IC50 (protease inhibition) [3]: 1.4 nM
hKLK7 IC90 (protease inhibition) [3]: 8.25 nM
B8: KLK7-L3-Ab3 (antibody, V domains shown)
VH: B9 VH with N30S, N31S, Y32H, S35T, A50G, V57F, A106S, Q107A
VL: B6 VL with Q89V, V91A, P92N, I93A, T97S

Kd [4]: 0.66 nM
hKLK5 IC50 (protease inhibition) [5]: 2.49 nM
hKLK5 IC90 (protease inhibition) [5]: 10.6 nM
mKLK5 IC50 (protease inhibition) [6]: 9.26 nM
mKLK5 IC90 (protease inhibition) [6]: 81.2 nM
B10: KLK5-L1-Ab4 (antibody, V domains shown)
VH: B6 VH with E30N, H31D
VL: B6 VL

Kd [4]: 0.41 nM
hKLK5 IC50 (protease inhibition) [5]: 2.26 nM
hKLK5 IC90 (protease inhibition) [5]: 13.3 nM
mKLK5 IC50 (protease inhibition) [6]: 4.43 nM
mKLK5 IC90 (protease inhibition) [6]: 34.6 nM
B11: KLK5-L1-Ab2 (antibody, V domains shown)
VH: B6 VH with E30G, H31S, S33A, Y57F
VL: B6 VL

Kd [4]: 0.26 nM
mKLK5 IC50 (protease inhibition) [6]: 4.1 nM
mKLK5 IC90 (protease inhibition) [6]: 25 nM
B13: KLK5-L1-Ab5 (antibody, V domains shown)
VH: B6 VH with S102D, M103R
VL: B6 VL
notes: also called KLK-L1-Ab5
